In one assay the test system is H522 LUAD cells. The assay is described as follows: GSH levels in H522 LUAD cells. In kind it is cell-based. The note with it: administration of GLRX to H522 LUAD cells. The method, then: Cell lysates were prepared in 100 mM potassium phosphate buffer containing 0.6% sulfosalicylic acid, 1 mM ethylenediaminetetraacetic acid (EDTA) and 0.01% triton-x-100. To measure total glutathione (GSH), equal amounts of proteins were incubated with 3 micromolar 5,5′-dithio-bis (2-nitrobenzoic acid) (DTNB) reagent and 2.25 microgram/ml glutathione reductase followed by the addition of 240 micromolar Nicotinamide adenine dinucleotide phosphate (NADPH). Kinetic absorbance was measured every minute at 412 nm for 20 minutes. For protein S-glutathionylation (PSSG) measurement, 400 micrograms of protein was acetone precipitated and washed thoroughly to remove any free GSH. Pellets were reconstituted in 100 mM potassium phosphate buffer with 1 mM EDTA. Samples were then incubated with 1 mM sodium borohydride (NaBH4) or water (negative control) for 1 hour at room temperature. 10% metaphosphoric acid was added to all the samples, including controls, and left on ice for 10 minutes. Samples were centrifuged at 1000×g for 15 minutes and 20 microliters were loaded in a 96 well plate to measure PSSG using, 5′-dithio-bis-(2-nitrobenzoic acid) (DTNB) recycling enzyme method as stated above.

Assay [1] relates to mouse tracheal epithelial (MTE) cells. The assay is described as follows: Total GSH measurement (DTNB assay) in MTE cells. Type of assay: cell-based. The note with it: direct administration of recombinant protein to MTE cells. The method, then: It has been previously shown that the pleotropic cytokine IL1B augments glycolysis in lung epithelial cells, and that interleukin 1B (IL1B) is linked to oxidative stress. The pentose phosphate pathway, an offshoot of glycolysis, regulates the redox environment by providing nicotinamide adenine dinucleotide phosphate (NADPH) reducing equivalents necessary for glutathione (GSH) homeostasis. The effects of GSH in response to IL1B were examined. Briefly, GSH was measured using a 5,5′-dithio-bis (2-nitrobenzoic acid) (DTNB) assay in both control and IL1B-stimulated mouse tracheal epithelial cells. […] Statistics on the left panel represent the total GSH levels, without differentiating between labeled and unlabeled portions of GSH (P-value*<0.05, ****<0.0001).
A regulator of GSH homeostasis is the transporter system xC-, which exports glutamate and concomitantly imports cystine in a 1:1 ratio. Once inside the cells, cystine is reduced to two cysteines, the latter being the rate limiting amino acid required for GSH synthesis. These relationships were examined further. […] To address whether IL1B-induced increases in GSH are system xC- dependent, two system xC- inhibitors, erastin (Er) and sulfasalazine (SAS) were used. Cells were pretreated for one hour, followed by IL1B treatment for 24 hours. Then, GSH levels were measured in cells exposed to increasing doses of Er or SAS (FIG. 2G). Extracellular glutamate levels in cell culture supernatant of cells pretreated with 0.5 micromolar Er (left) or 100 micromolar SAS (right) for 1 hour before IL1B stimulation were also measured (FIG. 2H). […] System xC- inhibition is known to induce ferroptosis, an iron-dependent mode of cell death characterized by increased lipid peroxidation. However, no changes in cell viability using erastin (5 micromolar) or sulfasalazine (500 micromolar) were detected (FIG. 2I; P-value*<0.05, ***<0.001, ****<0.0001).
Primary mouse tracheal epithelial (MTE) cells were isolated from C57BL/6NJ wild-type or C57BL6/NJ mice lacking Glrx1 gene and cultured. Cells were grown on collagen coated plastic plates or transwell inserts with media change every 2 days until confluency. For interleukin 1B (IL1B) treatment: cells were incubated in plain Dulbecco's Modified Eagle Medium (DMEM): F12 media containing 6 mM glucose and 2 mM glutamine overnight followed by stimulation with 10 ng/ml IL1B or 0.1% bovine serum albumin (BSA) in phosphate buffered saline (PBS) (vehicle control) for 24 hours. Treatment with crastin, sulfasalazine or BSO occurred 1 hour before IL1B stimulation. Media and cells were collected for further analysis. For growing H522 and OTUB1-CRISPR-H522 cells: Roswell Park Memorial Institute (RPMI) media supplemented with 10% fetal bovine serum (FBS) and 1% pen/strep was used to grow the cells. Plasmid over-expression and OTUB1 knock-down experiments were done when cells were 60-70% confluent.
Cell lysates were prepared in 100 mM potassium phosphate buffer containing 0.6% sulfosalicylic acid, 1 mM ethylenediaminetetraacetic acid (EDTA) and 0.01% triton-x-100. To measure total glutathione (GSH), equal amounts of proteins were incubated with 3 micromolar 5,5′-dithio-bis (2-nitrobenzoic acid) (DTNB) reagent and 2.25 microgram/ml glutathione reductase followed by the addition of 240 micromolar Nicotinamide adenine dinucleotide phosphate (NADPH). Kinetic absorbance was measured every minute at 412 nm for 20 minutes. […]

Among the data in US20260027190A1, “OVARIAN TUMOR DEUBIQUITINASE OXIDATION AND USES THEREOF” (The University of Vermont and State Agricultural College, priority 2022, published 2026) are GSH levels values, retold here.

B1: GLRX: recombinant wild-type glutaredoxin protein, deglutathionylating enzyme, administered directly to cells (protein, UniProt P35754 2-106, looked up)
Glutaredoxin-1: AQEFVNCKIQPGKVVVFIKPTCPYCRRAQEILSQLPIKQGLLEFVDITATNHTNEIQDYLQQLTGARTVPRVFIGKDCIGGCSDLVSLQQSGELLTRLKQIGALQ
Consider B1, for which the GSH levels result (in the assay with H522 LUAD cells; in assay [1]) was “decreased” each time.
